# B1: Cohesin subunit SA-2 (Homo sapiens), Q8N3U4 (parent)
# chain: MIAAPEIPTDFNLLQESETHFSSDTDFEDIEGKNQKQGKGKTCKKGKKGPAEKGKGGNGGGKPPSGPNRMNGHHQQNGVENMMLFEVVKMGKSAMQSVVDDWIESYKHDRDIALLDLINFFIQCSGCKGVVTAEMFRHMQNSEIIRKMTEEFDEDSGDYPLTMAGPQWKKFKSSFCEFIGVLVRQCQYSIIYDEYMMDTVISLLTGLSDSQVRAFRHTSTLAAMKLMTALVNVALNLSINMDNTQRQYEAERNKMIGKRANERLELLLQKRKELQENQDEIENMMNAIFKGVFVHRYRDAIAEIRAICIEEIGIWMKMYSDAFLNDSYLKYVGWTMHDKQGEVRLKCLTALQGLYYNKELNSKLELFTSRFKDRIVSMTLDKEYDVAVQAIKLLTLVLQSSEEVLTAEDCENVYHLVYSAHRPVAVAAGEFLYKKLFSRRDPEEDGMMKRRGRQGPNANLVKTLVFFFLESELHEHAAYLVDSMWDCATELLKDWECMNSLLLEEPLSGEEALTDRQESALIEIMLCTIRQAAECHPPVGRGTGKRVLTAKEKKTQLDDRTKITELFAVALPQLLAKYSVDAEKVTNLLQLPQYFDLEIYTTGRLEKHLDALLRQIRNIVEKHTDTDVLEACSKTYHALCNEEFTIFNRVDISRSQLIDELADKFNRLLEDFLQEGEEPDEDDAYQVLSTLKRITAFHNAHDLSKWDLFACNYKLLKTGIENGDMPEQIVIHALQCTHYVILWQLAKITESSSTKEDLLRLKKQMRVFCQICQHYLTNVNTTVKEQAFTILCDILMIFSHQIMSGGRDMLEPLVYTPDSSLQSELLSFILDHVFIEQDDDNNSADGQQEDEASKIEALHKRRNLLAAFCKLIVYTVVEMNTAADIFKQYMKYYNDYGDIIKETMSKTRQIDKIQCAKTLILSLQQLFNEMIQENGYNFDRSSSTFSGIKELARRFALTFGLDQLKTREAIAMLHKDGIEFAFKEPNPQGESHPPLNLAFLDILSEFSSKLLRQDKRTVYVYLEKFMTFQMSLRREDVWLPLMSYRNSLLAGGDDDTMSVISGISSRGSTVRSKKSKPSTGKRKVVEGMQLSLTEESSSSDSMWLSREQTLHTPVMMQTPQLTSTIMREPKRLRPEDSFMSVYPMQTEHHQTPLDYNRRGTSLMEDDEEPIVEDVMMSSEGRIEDLNEGMDFDTMDIDLPPSKNRRERTELKPDFFDPASIMDESVLGVSMF
# partner: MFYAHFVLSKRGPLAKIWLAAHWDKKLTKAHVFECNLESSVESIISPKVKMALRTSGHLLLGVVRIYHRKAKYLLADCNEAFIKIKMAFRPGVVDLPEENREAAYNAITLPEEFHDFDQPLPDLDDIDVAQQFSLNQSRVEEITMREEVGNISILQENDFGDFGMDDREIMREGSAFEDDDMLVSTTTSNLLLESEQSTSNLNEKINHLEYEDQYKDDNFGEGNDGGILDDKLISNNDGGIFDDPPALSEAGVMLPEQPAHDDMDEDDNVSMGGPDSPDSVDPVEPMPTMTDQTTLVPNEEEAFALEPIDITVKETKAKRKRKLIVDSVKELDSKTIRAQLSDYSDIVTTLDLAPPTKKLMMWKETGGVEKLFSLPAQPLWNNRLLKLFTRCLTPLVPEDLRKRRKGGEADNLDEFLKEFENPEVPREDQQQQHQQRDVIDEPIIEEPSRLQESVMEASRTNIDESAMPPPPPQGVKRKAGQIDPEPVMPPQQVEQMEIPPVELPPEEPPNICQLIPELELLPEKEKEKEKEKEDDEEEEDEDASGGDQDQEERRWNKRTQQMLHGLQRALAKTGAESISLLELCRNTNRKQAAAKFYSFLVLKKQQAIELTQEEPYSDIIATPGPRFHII
# B2: Cohesin subunit SA-2 (Homo sapiens), Q8N3U4 (parent)
# chain: B1 chain
# partner: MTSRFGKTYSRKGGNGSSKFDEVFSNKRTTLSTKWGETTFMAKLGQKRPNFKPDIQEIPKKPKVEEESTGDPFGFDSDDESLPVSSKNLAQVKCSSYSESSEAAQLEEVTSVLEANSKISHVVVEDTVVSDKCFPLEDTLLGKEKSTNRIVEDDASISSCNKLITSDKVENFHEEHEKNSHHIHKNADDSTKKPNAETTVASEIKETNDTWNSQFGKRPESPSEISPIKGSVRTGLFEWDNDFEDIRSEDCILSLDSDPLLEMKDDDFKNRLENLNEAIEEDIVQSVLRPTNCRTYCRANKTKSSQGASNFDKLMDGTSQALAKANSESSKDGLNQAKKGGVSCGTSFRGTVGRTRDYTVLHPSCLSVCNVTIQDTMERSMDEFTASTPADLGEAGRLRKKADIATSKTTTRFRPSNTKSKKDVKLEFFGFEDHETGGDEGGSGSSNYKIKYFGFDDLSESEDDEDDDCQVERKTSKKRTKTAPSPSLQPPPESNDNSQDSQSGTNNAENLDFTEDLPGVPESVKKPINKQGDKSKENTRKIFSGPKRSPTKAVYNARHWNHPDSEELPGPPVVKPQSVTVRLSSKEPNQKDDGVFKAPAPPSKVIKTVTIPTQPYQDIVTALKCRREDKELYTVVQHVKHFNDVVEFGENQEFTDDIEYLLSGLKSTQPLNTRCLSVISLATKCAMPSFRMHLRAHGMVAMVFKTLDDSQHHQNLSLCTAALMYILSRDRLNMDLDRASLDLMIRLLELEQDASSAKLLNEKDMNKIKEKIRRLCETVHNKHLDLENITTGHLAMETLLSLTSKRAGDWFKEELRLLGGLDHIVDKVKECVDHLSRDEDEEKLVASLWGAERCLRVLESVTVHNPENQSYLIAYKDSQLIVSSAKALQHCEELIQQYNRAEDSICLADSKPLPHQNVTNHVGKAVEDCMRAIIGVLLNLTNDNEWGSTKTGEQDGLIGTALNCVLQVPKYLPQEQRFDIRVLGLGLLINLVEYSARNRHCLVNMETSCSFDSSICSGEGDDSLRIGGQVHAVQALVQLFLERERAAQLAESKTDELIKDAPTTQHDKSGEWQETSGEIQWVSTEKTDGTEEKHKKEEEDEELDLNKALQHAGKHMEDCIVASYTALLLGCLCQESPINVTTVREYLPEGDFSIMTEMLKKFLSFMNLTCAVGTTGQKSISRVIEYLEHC
# B3: Double-strand-break repair protein rad21 homolog (Homo sapiens), O60216 (parent)
# chain: B1 partner
# partner: B1 chain
# Variants of: B1
# Details: with rad21_human RAD21, O60216
row,effect of a mutation on the interaction,Variant
1,disrupting interaction strength,D793K

# Variants of: B2
# Details: with wapl_human WAPL
row,effect of a mutation on the interaction,Variant
1,disrupting interaction strength,K290E
2,disrupting interaction strength,K330E
3,disrupting interaction strength,D326K
4,decreasing interaction strength,W334A

# Variants of: B3
# Details: with stag2_human STAG2, Q8N3U4
row,effect of a mutation on the interaction,Variant
1,disrupting interaction strength,L385A;L388A;F389A

# Variants of: B3
# Details: with stag2_human STAG2, Q8N3U4
# Remark: another data set of the same source
row,effect of a mutation on the interaction,Variant
1,decreasing interaction strength,D327K
